Experimental data from publication PMC4273445 (eLife, 2014).

Legend:
Assay in all cases: SPR
[1] = target: fHbp V3.28 Ala (at V1 Pro265) to Pro (N. meningitidis)
[2] = target: fHbp 3.P30 (N. meningitidis) (UniProt E6MV22)
[3] = target: fHbp V2.21 Ser (at V1 Ser302) to Ala (N. meningitidis)
[4] = target: fHbp V1.1 Lys306 to Ala (N. meningitidis)
[5] = target: fHbp V3.28 Leu (at V1 Ile199) to Ala (N. meningitidis)
[6] = target: fHbp V1.1 Leu156 to Ala (N. meningitidis)
[7] = target: fHbp V3.28 Ser (at V1 Ser302) to Ala (N. meningitidis)
[8] = target: fHbp V3.28 Ser (at V1 Ser104) to Ala (N. meningitidis)
[9] = target: fHbp 1.P78 (N. meningitidis) (UniProt E6MV22)
[10] = target: fHbp V1.1 Asp266 to Ala (N. meningitidis)
[11] = target: fHbp 1.P74 (N. meningitidis) (UniProt E6MV22)
[12] = target: fHbp V3.28 Lys (at V1 Lys264) to Ala (N. meningitidis)
[13] = target: fHbp 2.P19 (N. meningitidis) (UniProt E6MV22)
[14] = target: fHbp V2.21 Lys (at V1 Lys107) to Ala (N. meningitidis)
[15] = target: fHbp V3.28 Val (at V1 Ile311) to Ala (N. meningitidis)
[16] = target: fHbp V3.28 Leu (at V1 Ser274) to Ala (N. meningitidis)
[17] = target: fHbp 1.P5 (N. meningitidis) (UniProt E6MV22)
[18] = target: fHbp 2.P23 (N. meningitidis) (UniProt E6MV22)
[19] = target: fHbp 2.P25 (N. meningitidis) (UniProt E6MV22)
[20] = target: fHbp V3.28 Val (at V1 Leu171) to Ala (N. meningitidis)
[21] = target: fHbp V1.1 Ser288 to Ala (N. meningitidis)
[22] = target: fHbp V3.28 Val (at V1 Val149) to Ala (N. meningitidis)
[23] = target: fHbp V2.21 Lys (at V1 Lys268) to Ala (N. meningitidis)
[24] = target: fHbp V1.1 Lys107 to Ala (N. meningitidis)
[25] = target: fHbp V2.21 Lys (at V1 Lys92) to Ala (N. meningitidis)
[26] = target: factor H binding protein (fHbp) V2.21 (N. meningitidis) (UniProt E6MV22)
[27] = target: fHbp V2.21 Glu (at V1 Glu109) to Ala (N. meningitidis)
[28] = target: fHbp 2.P16 (N. meningitidis) (UniProt E6MV22)
[29] = target: fHbp V2.21 Ile (at V1 Ile273) to Ala (N. meningitidis)
[30] = target: fHbp V3.28 Leu (at V1 Leu289) to Ala (N. meningitidis)
[31] = target: fHbp V1.1 Phe174 to Ala (N. meningitidis)
[32] = target: fHbp V2.21 Leu (at V1 Ser274) to Ala (N. meningitidis)
[33] = target: fHbp V2.21 Leu (at V1 Phe174) to Ala (N. meningitidis)
[34] = target: fHbp V2.21 His (at V1 Ser288) to Ala (N. meningitidis)
[35] = target: fHbp V2.21 Pro (at V1 Ser182) to Ala (N. meningitidis)
[36] = target: fHbp 3.P47 (N. meningitidis) (UniProt E6MV22)
[37] = target: fHbp V1.1 Asp150 to Ala (N. meningitidis)
[38] = target: fHbp 1.P10 (N. meningitidis) (UniProt E6MV22)
[39] = target: fHbp V3.28 Ala (at V1 Glu157) to Glu (N. meningitidis)
[40] = target: fHbp 1.P4 (N. meningitidis) (UniProt E6MV22)
[41] = target: fHbp V1.1 Lys264 to Ala (N. meningitidis)
[42] = target: fHbp V2.21 Lys (at V1 His184) to Ala (N. meningitidis)
[43] = target: fHbp V3.28 Thr (at V1 Glu304) to Ala (N. meningitidis)
[44] = target: fHbp 1.P249 (N. meningitidis) (UniProt E6MV22)
[45] = target: fHbp V3.28 Phe (at V1 Phe194) to Ala (N. meningitidis)
[46] = target: fHbp V3.28 Gln (at V1 Lys191) to Ala (N. meningitidis)
[47] = target: fHbp V2.21 Glu (at V1 Glu157) to Ala (N. meningitidis)
[48] = target: fHbp V1.1 Ser286 to Ala (N. meningitidis)

Chain of CFH67, CCP domains 6 and 7 of complement factor H (P08603 321-443): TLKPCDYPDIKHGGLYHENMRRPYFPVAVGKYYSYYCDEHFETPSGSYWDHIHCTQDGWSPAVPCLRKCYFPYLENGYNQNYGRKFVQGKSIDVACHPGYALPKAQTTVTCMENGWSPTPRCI

CFH67, CCP domains 6 and 7 of complement factor H (from UniProt P08603 321-443) (domain or fragment)
Kd [1]: 3.76 nM
Kd [2]: 1.97 nM
Kd [3]: 8.39 nM
Kd [4]: 2.94 nM
Kd [5]: 25.8 nM
Kd [6]: 60.5 nM
Kd [7]: 6.18 nM
Kd [8]: 8.99 nM
Kd [9]: 10.5 nM
Kd [10]: 3.34 nM
Kd [11]: 5.14 nM
Kd [12]: 21.1 nM
Kd [13]: 1.91 nM
Kd [14]: 3.06 nM
Kd [15]: 30.3 nM
Kd [16]: 18.5 nM
Kd [17]: 4.8 nM
Kd [18]: 1.99 nM
Kd [19]: 0.346 nM
Kd [20]: 3.07 nM
Kd [21]: 2.87 nM
Kd [22]: 6.81 nM
Kd [23]: 3.28 nM
Kd [24]: 9.59 nM
Kd [25]: 2.73 nM
Kd [26]: 1.87 nM
Kd [27]: 2.34 nM
Kd [28]: 3.46 nM
Kd [29]: 0.231 nM
Kd [30]: 1.29 nM
Kd [31]: 3.21 nM
Kd [32]: 23.9 nM
Kd [33]: 0.157 nM
Kd [34]: 6.77 nM
Kd [35]: 7.98 nM
Kd [36]: 0.514 nM
Kd [37]: 6.11 nM
Kd [38]: 15.2 nM
Kd [39]: 37.5 nM
Kd [40]: 3.94 nM
Kd [41]: 12.3 nM
Kd [42]: 3.15 nM
Kd [43]: 11.7 nM
Kd [44]: 5.36 nM
Kd [45]: 4.25 nM
Kd [46]: 2.43 nM
Kd [47]: 0.401 nM
Kd [48]: 11.3 nM

CFHR3_(12), the first two (N-terminal) CCP domains of complement factor H-related 3 (from UniProt Q02985 19-330) (domain or fragment)
Kd [1]: 4.82 nM
Kd [2]: 2.93 nM
Kd [3]: 6.3 nM
Kd [4]: 57.7 nM
Kd [5]: 34.6 nM
Kd [6]: 311 nM
Kd [7]: 7.64 nM
Kd [8]: 7.19 nM
Kd [9]: 80 nM
Kd [10]: 82.6 nM
Kd [11]: 56.9 nM
Kd [12]: 29.2 nM
Kd [13]: 2.11 nM
Kd [14]: 4.47 nM
Kd [15]: 36.3 nM
Kd [16]: 20.3 nM
Kd [17]: 55.2 nM
Kd [18]: 1.7 nM
Kd [19]: 1.61 nM
Kd [20]: 3.81 nM
Kd [21]: 57.5 nM
Kd [22]: 8.28 nM
Kd [23]: 3.25 nM
Kd [24]: 174 nM
Kd [25]: 3.06 nM
Kd [26]: 3.73 nM
Kd [27]: 4.62 nM
Kd [28]: 3.74 nM
Kd [29]: 0.605 nM
Kd [30]: 1.18 nM
Kd [31]: 338 nM
Kd [32]: 17.8 nM
Kd [33]: 3.44 nM
Kd [34]: 7.63 nM
Kd [35]: 5.84 nM
Kd [36]: 1.64 nM
Kd [37]: 118 nM
Kd [38]: 119 nM
Kd [39]: 4.35 nM
Kd [40]: 75 nM
Kd [41]: 589 nM
Kd [42]: 3.13 nM
Kd [43]: 17.5 nM
Kd [44]: 32.3 nM
Kd [45]: 5.15 nM
Kd [46]: 3.05 nM
Kd [47]: 2.74 nM
Kd [48]: 93.6 nM
